From paper PMC3048824 (Journal of molecular biology, 2009) come the findings set out here.

Where “and” joins values, the source holds several entries; their conditions need not be identical. Equal entries are not always repeated.

The data set “AUC” deals with the molecule itself. As to the kind of experiment: AUC.
Data set [1] concerns the molecule itself. As to the kind of experiment: GdmCl-induced equilibrium unfolding-refolding monitored by CD.

B1: full-length NC1 domain of murine collagen XV (domain or fragment)
chain: NLVTALSDMGDMLQKAHLVIEGTFIYLRDSGEFFIRVRDGWKKLQLGELIPIPADSPPPPALSSNPYQPQPPLNPILSANYERPVLHLVALNTPVAGDIRADFQCFQQARAAGLLSTFRAFLSSHLQDLSTVVRKAERFGLPIVNLKGQVLFNNWDSIFSGDGGQFNTHIPIYSFDGRDVMTDPSWPQKVVWHGSNPHGVRLVDKYCEAWRTTDMAVTGFASPLSTGKILDQKAYSCANRLIVLCIENSFMTDTRK
The stoichiometry N is the number of molecules, sites or subunits per partner or assembly. Turning to B1, in the data set “AUC”, the “stoichiometry N” value is 3.11 and 3.6.

B2: NC1(54) peptide of human collagen XVIII (domain or fragment)
chain: GSSGVRLWATRQAMLGQVHEVPEGWLIFVAEQEELYVRVQNGFRKVQLEARTPLPR
For the protein B2, the “Keq ([U]^3/[N], native trimer to unfolded monomers, in water)” value in data set [1] came to 2.4e-21 mol^2.

B3: full-length NC1 domain of murine collagen XVIII (domain or fragment)
chain: AGQVRIWATYQTMLDKIREVPEGWLIFVAEREELYVRVRNGFRKVLLEARTALPRGTGNEVAALQPPLVQLHEGSPYTRREYSYSTARPWRADDILANPPRLPDRQPYPGVPHHHSSYVHLPPARPTLSLAHTHQDFQPVLHLVALNTPLSGGMRGIRGADFQCFQQARAVGLSGTFRAFLSSRLQDLYSIVRRADRGSVPIVNLKDEVLSPSWDSLFSGSQGQLQPGARIFSFDGRDVLRHPAWPQKSVWHGSDPSGRRLMESYCETWRTETTGATGQASSLLSGRLLEQKAASCHNSYIVLCIENSFMTSFSK
Regarding B3, the “stoichiometry N” value in “AUC” came out at 2.56.
